The source of these data is publication PMC5156300 (mBio, 2016).

The target of the assay is T1, NP from influenza virus A/WSN/33 with a C-terminal His tag (Influenza A virus A/WSN/33), P15682.
T1 chain: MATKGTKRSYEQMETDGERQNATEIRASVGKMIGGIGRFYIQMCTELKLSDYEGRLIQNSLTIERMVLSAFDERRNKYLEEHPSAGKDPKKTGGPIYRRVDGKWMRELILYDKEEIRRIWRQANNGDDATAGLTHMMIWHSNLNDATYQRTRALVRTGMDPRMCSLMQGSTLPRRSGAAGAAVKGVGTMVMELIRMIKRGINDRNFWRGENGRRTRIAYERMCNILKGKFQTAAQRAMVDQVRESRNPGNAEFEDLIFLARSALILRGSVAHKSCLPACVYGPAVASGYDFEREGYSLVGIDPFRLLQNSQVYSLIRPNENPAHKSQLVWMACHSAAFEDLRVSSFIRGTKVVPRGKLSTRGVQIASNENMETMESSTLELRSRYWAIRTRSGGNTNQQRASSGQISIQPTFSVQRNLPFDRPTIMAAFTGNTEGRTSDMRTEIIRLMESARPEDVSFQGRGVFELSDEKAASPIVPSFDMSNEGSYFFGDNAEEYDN
In words: crystal structure. Particulars: remark: other sources report otherwise.

B1: NP from influenza virus A/WSN/33 with a C-terminal His tag, P15682 1-498 (natural protein)
chain: MATKGTKRSYEQMETDGERQNATEIRASVGKMIGGIGRFYIQMCTELKLSDYEGRLIQNSLTIERMVLSAFDERRNKYLEEHPSAGKDPKKTGGPIYRRVDGKWMRELILYDKEEIRRIWRQANNGDDATAGLTHMMIWHSNLNDATYQRTRALVRTGMDPRMCSLMQGSTLPRRSGAAGAAVKGVGTMVMELIRMIKRGINDRNFWRGENGRRTRIAYERMCNILKGKFQTAAQRAMVDQVRESRNPGNAEFEDLIFLARSALILRGSVAHKSCLPACVYGPAVASGYDFEREGYSLVGIDPFRLLQNSQVYSLIRPNENPAHKSQLVWMACHSAAFEDLRVSSFIRGTKVVPRGKLSTRGVQIASNENMETMESSTLELRSRYWAIRTRSGGNTNQQRASSGQISIQPTFSVQRNLPFDRPTIMAAFTGNTEGRTSDMRTEIIRLMESARPEDVSFQGRGVFELSDEKAASPIVPSFDMSNEGSYFFGDNAEEYDN
B1: the stoichiometry N (commonly a count of units in the complex or per binding partner) was 3.
